Patent publication US20030133924A1

What was measured:
[1] = target: Mannose 6-phosphate (M6P) receptor purified from bovine liver, coupled to NHS-Sepharose 4B FF resin (bovine); experiment: M6P receptor affinity column, 0-1 mM then 5 mM M6P elution; GBA activity in fractions (FIG. 1B)
[2] = target: Mannose 6-phosphate (M6P) receptor purified from bovine liver, coupled to NHS-Sepharose 4B FF resin (bovine); experiment: M6P receptor affinity column, 0-1 mM then 5 mM M6P elution; GBA activity in fractions (FIG. 1A)

Mannose 6-phosphate (M6P) receptor purified from bovine liver, coupled to NHS-Sepharose 4B FF resin (bovine), sequence (P08169 45-2499): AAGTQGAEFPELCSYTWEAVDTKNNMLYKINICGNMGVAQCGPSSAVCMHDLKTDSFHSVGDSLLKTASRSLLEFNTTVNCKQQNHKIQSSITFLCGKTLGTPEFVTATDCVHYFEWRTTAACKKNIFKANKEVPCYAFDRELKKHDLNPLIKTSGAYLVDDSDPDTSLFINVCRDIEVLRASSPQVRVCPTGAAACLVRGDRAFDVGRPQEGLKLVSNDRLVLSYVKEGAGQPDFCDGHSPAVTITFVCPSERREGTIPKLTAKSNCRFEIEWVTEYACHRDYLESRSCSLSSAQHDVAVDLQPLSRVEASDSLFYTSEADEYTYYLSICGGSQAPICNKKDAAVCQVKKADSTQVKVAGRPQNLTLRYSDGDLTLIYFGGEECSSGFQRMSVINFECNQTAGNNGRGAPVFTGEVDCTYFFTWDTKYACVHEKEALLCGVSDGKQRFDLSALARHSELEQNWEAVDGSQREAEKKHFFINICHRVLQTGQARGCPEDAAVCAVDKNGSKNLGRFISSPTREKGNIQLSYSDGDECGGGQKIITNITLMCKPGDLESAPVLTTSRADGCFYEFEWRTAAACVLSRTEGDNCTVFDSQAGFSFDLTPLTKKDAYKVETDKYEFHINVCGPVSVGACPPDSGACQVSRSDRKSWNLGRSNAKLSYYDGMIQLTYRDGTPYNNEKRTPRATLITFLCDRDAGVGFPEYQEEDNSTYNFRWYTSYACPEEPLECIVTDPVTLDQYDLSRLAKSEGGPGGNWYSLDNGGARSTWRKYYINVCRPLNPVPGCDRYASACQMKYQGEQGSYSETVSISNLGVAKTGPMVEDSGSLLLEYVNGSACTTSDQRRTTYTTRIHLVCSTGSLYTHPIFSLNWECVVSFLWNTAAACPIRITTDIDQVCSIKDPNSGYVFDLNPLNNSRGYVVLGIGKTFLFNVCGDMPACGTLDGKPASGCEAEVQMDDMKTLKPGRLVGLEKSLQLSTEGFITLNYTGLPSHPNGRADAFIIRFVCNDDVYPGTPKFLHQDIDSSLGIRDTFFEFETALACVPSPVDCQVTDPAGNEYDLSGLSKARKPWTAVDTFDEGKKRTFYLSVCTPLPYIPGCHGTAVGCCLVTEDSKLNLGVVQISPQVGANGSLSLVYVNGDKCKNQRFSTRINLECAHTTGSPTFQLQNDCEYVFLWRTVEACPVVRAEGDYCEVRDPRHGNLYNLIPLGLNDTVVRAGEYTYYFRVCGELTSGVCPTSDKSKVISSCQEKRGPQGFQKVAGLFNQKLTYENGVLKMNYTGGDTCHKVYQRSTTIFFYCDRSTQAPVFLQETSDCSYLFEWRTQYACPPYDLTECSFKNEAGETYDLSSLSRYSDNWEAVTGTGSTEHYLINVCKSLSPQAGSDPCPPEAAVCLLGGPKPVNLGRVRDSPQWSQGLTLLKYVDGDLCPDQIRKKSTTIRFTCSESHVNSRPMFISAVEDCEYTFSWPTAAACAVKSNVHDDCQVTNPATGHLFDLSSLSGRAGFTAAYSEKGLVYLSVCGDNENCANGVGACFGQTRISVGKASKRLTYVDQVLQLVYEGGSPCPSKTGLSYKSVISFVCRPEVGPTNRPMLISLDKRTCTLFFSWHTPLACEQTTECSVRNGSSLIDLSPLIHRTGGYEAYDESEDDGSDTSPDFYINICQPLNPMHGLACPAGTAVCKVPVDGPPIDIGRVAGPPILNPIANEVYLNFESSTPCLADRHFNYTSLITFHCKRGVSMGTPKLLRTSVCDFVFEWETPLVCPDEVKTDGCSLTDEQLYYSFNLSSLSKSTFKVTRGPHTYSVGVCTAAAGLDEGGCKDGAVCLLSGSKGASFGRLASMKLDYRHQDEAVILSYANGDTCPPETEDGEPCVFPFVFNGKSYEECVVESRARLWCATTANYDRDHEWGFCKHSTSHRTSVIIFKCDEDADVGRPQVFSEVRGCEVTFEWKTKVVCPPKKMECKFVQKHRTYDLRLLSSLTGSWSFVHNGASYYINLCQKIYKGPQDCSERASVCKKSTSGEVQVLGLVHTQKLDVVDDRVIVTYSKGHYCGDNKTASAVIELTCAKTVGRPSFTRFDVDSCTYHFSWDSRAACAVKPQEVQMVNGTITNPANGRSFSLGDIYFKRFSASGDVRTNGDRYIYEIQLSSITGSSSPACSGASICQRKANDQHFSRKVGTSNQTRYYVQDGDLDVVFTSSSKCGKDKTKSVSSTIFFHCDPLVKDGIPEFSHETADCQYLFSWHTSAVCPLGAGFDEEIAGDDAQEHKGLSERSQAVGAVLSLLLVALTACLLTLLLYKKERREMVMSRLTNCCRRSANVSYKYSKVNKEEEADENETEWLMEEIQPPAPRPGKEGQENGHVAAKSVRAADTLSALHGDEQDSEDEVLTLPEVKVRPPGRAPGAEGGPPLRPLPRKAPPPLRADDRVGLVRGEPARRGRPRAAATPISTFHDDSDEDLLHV

Row | percent of GBA activity eluted after the start of the M6P gradient (retained on the receptor column) [1] [%] | percent of the retained GBA activity eluted only after the addition of 5 mM M6P [1] [%] | percent of sample eluted prior to the start of the M6P gradient (not retained on the receptor column) [2] [%] | Substance
1 | 77 | 35 | – | highly phosphorylated human acid β-glucocerebrosidase (HP-GBA), treated with GlcNAc-phosphotransferase and uncovering enzyme (from UniProt P04062 40-536)
2 | – | – | > 99 | human acid β-glucocerebrosidase (GBA), partially purified, before phosphorylation (from UniProt P04062 40-536) (enzyme)
